Test results published in patent publication US20210032342A1 (Merck Sharp & Dohme, published 2021).

T1: human LAG-3 expressed by the CD4+ T-cell clone BC4-49 (human, UniProt P18627 23-525)
T1 construct: whole, on cells
T1 sequence (looked up): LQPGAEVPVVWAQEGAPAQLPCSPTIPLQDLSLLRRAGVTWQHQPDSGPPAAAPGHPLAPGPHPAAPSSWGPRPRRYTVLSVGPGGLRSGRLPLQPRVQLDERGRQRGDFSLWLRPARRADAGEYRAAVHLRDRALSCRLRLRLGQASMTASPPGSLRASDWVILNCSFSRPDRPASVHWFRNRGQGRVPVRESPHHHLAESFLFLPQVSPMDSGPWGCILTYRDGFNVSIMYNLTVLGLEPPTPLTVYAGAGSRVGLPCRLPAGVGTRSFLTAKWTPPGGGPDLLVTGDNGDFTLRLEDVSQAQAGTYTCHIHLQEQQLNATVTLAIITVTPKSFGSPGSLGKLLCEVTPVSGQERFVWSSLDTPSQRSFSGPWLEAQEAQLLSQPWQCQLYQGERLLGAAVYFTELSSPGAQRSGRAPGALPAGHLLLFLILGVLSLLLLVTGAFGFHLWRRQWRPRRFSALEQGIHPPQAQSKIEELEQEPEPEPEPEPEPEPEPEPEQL

B1: Anti-PD-1/LAG3 bispecific antibody 90ASU (bispecific antibody, human IgG1, kappa, L234A L235A)
heavy 1: not shown
light 1: DIVMTQTPLSLSVTPGQPASISCRASKSVSTSGFSYLHWYLQKPGQPPQLLIFLASNLESGVPDRFSGSGSGTDFTLKISRVEAEDVGVYYCQHSWELPLTFGQGTKLEIKRTVAAPSVFIFPPSDERLKSGTASVVCLLNNFYPREAKVQWKVDNALQSGNSQESVTEQDSKDSTYSLSSRLTLSKADYEKHKVYACEVTHQGLSSPVTKSFNRGEC
heavy 2: QMQLVQSGPEVKKPGTSVKVSCKASGYTFTDYNVDWVRQARGQRLEWIGDINPNDGGTIYAQKFQERVTITVDKSTSTAYMELSSLRSEDTAVYYCARNYRWFGAMDHWGQGTTVTVSSASTKGPSVFPLAPSSKSTSGGTAALGCLVKDYFPEPVTVSWNSGALTSGVHTFPAVLQSSGLYKLSSVVTVPSSSLGTQTYICNVNHKPSNTKVDKKVEPKSCDKTHTCPPCPAPEAAGGPSVFLFPPKPKDTLMISRTPEVTCVVVSVSHEDPEVKFNWYVDGVEVHNAKTKPREEQYNSTYRVVSVLTVLHQDWLNGKEYKCKVSNKALPAPIEKTISKAKGQPREPQVYVLPPSRDELTKNQVSLLCLVKGFYPSDIAVEWESNGQPENNYLTWPPVLDSDGSFFLYSKLTVDKSRWQQGNVFSCSVMHEALHNHYTQKSLSLSPG
light 2: DIVMTQTPLSLSVTPGQPASISCKASQSLDYEGDSDMNWYLQKPGQPPQLLIYGASNLESGVPDRFSGSGSGTDFTLKISRVEAEDVGVYYCQQSTEDPRTFGGGTKVEIKRTVAAPSVFIFPPSDEELKSGTATVVCLLNNFYPREAKVQWKVDNALQSGNSQESVTEQDSKDSTYSLSSYLELSKADYEKHKVYACEVTHQGLSSPVTKSFNRGEC
notes: also called Humanized x [PD-1_H]; [LAG3_H]; BsAb (hu08A S61N G56A arm / 22D2 arm) IgG1/Kappa
B2: Anti-PD-1/LAG3 bispecific antibody 33ARK (bispecific antibody, human IgG1, kappa, L234A L235A)
heavy 1: EVQLVQSGAEVKKPGASVKVSCKASGYTFTSYYLYWVREAPGQGLEWIGGVNPSNGGTNFNEKFKSRVTLTVDTSISTAYMELSRLRSDDTAVYYCTRRDSNYDGGFDYWGQGTTVTVSSASTKGPSVFPLAPSSKSTSGGTAALGCEVTDYFPEPVTVSWNSGALTSGVHTFPAVLESSGLYSLSSVVTVPSSSLGTQTYICNVNHKPSNTKVDKKVEPKSCDKTHTCPPCPAPEAAGGPSVFLFPPKPKDTLMISRTPEVTCVVVSVSHEDPEVKFNWYVDGVEVHNAKTKPREEQYNSTYRVVSVLTVLHQDWLNGKEYKCKVSNKALPAPIEKTISKAKGQPREPQVYVLPPSRDELTKNQVSLLCLVKGFYPSDIAVEWESNGQPENNYLTWPPVLDSDGSFFLYSKLTVDKSRWQQGNVFSCSVMHEALHNHYTQKSLSLSPG
light 1: DIVMTQTPLSLSVTPGQPASISCRASKSVSTSGFSYLHWYLRKPGQPPQLLIFLASNLESGVPDRFSGSGSGTDFTLKISRVEAEDVGVYYCQHSWELPLTFGQGTKLEIKRTVAAPSVFIFPPSDERLKSGTASVVCLLNNFYPREAKVQWKVDNALQSGNSKESVTEQDSKDSTYSLSSRLTLSKADYEKHKVYACEVTHQGLSSPVTKSFNRGEC
heavy 2: not shown
light 2: DIVMTQTPLSLSVTPGQPASISCKASQSLDYEGDSDMNWYLEKPGQPPQLLIYGASNLESGVPDRFSGSGSGTDFTLKISRVEAEDVGVYYCQQSTEDPRTFGGGTKVEIKRTVAAPSVFIFPPSDEELKSGTASVVCLLNNFYPREAKVQWKVDNALQSGNSEESVTEQDSKDSTYSLSSTLELSKADYEKHKVYACEVTHQGLSSPVTKSFNRGEC
B3: Anti-PD-1/LAG-3 bispecific antibody (BsAb) 18ASS (bispecific antibody, human IgG1, kappa, L234A L235A)
heavy 1: not shown
light 1: DIVMTQTPLSLSVTPGQPASISCRASKSVSTSGFSYLHWYLQKPGQPPQLLIFLSKYRSSGVPDRFSGSGSGTDFTLKISRVEAEDVGVYYCSQAYHLPLTFGQGTKLEIKRTVAAPSVFIFPPSDERLKSGTASVVCLLNNFYPREAKVQWKVDNALQSGNSQESVTEQDSKDSTYSLSSRLTLSKADYEKHKVYACEVTHQGLSSPVTKSFNRGEC
heavy 2: QMQLVQSGPEVKKPGTSVKVSCKASGYTFTDYNVDWVRQARGQRLEWIGDINPNDGGTIYAQKFQERVTITVDKSTSTAYMELSSLRSEDTAVYYCARNYRWFGAMDHWGQGTTVTVSSASTKGPSVFPLAPSSKSTSGGTAALGCLVKDYFPEPVTVSWNSGALTSGVHTFPAVLQSSGLYKLSSVVTVPSSSLGTQTYICNVNHKPSNTKVDKKVEPKSCDKTHTCPPCPAPEAAGGPSVFLFPPKPKDTLMISRTPEVTCVVVSVSHEDPEVKFNWYVDGVEVHNAKTKPREEQYNSTYRVVSVLTVLHQDWLNGKEYKCKVSNKALPAPIEKTISKAKGQPREPQVYVLPPSRDELTKNQVSLLCLVKGFYPSDIAVEWESNGQPENNYLTWPPVLDSDGSFFLYSKLTVDKSRWQQGNVFSCSVMHEALHNHYTQKSLSLSPG
light 2: DIVMTQTPLSLSVTPGQPASISCKASQSLDYEGDSDMNWYLQKPGQPPQLLIYGASNLESGVPDRFSGSGSGTDFTLKISRVEAEDVGVYYCQQSTEDPRTFGGGTKVEIKRTVAAPSVFIFPPSDEELKSGTATVVCLLNNFYPREAKVQWKVDNALQSGNSQESVTEQDSKDSTYSLSSYLELSKADYEKHKVYACEVTHQGLSSPVTKSFNRGEC
B4: Humanized x [PD-1_H] Fab (08A/HuPD1A-11 S61N WT) IgG4/Kappa (00APE) (Fab, V domains shown)
VH: EVQLVQSGAEVKKPGASVKVSCKASGYTFTSYYLYWVRQAPGQGLEWIGGVNPSNGGTNFNEKFKSRVTLTVDTSISTAYMELSRLRSDDTAVYYCTRRDSNYDGGFDYWGQGTTVTVSS
VL: DIVMTQTPLSLSVTPGQPASISCRASKSVSTSGFSYLHWYLQKPGQPPQLLIFLASNLESGVPDRFSGSGSGTDFTLKISRVEAEDVGVYYCQHSWELPLTFGQGTKLEIKR
B5: Humanized x [PD-1_H] mAb (08A/HuPD1A-11 S61N CP-affinity matured Fab 100 (VH H3G9 (D100L N102H) G56A/VL L28D1) L234A L235A D265S) IgG1/Kappa (25AVE) (antibody, V domains shown)
VH: EVQLVQSGAEVKKPGASVKVSCKASGYTFTSYYLYWVRQAPGQGLEWIGGVNPSNAGTNFNEKFKSRVTLTVDTSISTAYMELSRLRSDDTAVYYCTRRLSHYDGGFDYWGQGTTVTVSS
VL: DIVMTQTPLSLSVTPGQPASISCRASKSVSTSGFSYLHWYLQKPGQPPQLLIFLSKYRSSGVPDRFSGSGSGTDFTLKISRVEAEDVGVYYCSQAYHLPLTFGQGTKLEIKR
notes: also called Humanized 08A IgG4 Fab 100 S61N G56A

Key:
[1] = biological target: human PD-1 expressed on cells (Jurkat.hPD-1.IL2luc clone DT999A1; CD4+ T cell clone BC4-49) (human, UniProt Q15116 25-288); assay: cell-based or functional assay
Chain of human PD-1 expressed on cells (Jurkat.hPD-1.IL2luc clone DT999A1; CD4+ T cell clone BC4-49) (Q15116 25-288): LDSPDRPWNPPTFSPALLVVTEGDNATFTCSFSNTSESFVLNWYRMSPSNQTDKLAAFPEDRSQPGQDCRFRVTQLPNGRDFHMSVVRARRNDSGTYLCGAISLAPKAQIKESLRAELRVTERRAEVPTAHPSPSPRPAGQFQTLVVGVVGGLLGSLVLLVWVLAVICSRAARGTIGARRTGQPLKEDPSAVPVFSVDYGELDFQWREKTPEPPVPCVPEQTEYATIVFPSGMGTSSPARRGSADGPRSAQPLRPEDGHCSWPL

[2] = biological target: T1, human LAG-3 expressed by the CD4+ …; assay: T-cell clone + JY.hPD-L1 co-culture (conclusion stated from IFNγ read-out)
Description: The pellets were resuspended into single cell suspension in Yssel's medium. […] Fifty microliters of T cell suspension at a density of 4×10⁵ cells/mL was added into wells containing titrated antibodies. The antibody/T cell mixture was pre-incubated for 1 hour in an incubator at 37° C. with 5% CO₂. Human PD-L1 transgene expressing JY cells (JY.hPD-L1) were used in co-cultures to provide allo-specific antigens. […] The pellet was resuspended with Yssel's medium, and filtered with 40 μm cell strainer before plating. Fifty μL/well of JY.hPD-L1 suspension at a concentration of 2×10⁵ cells/mL was dispensed into pre-incubated antibody-T cells mixture, with T cell to JY.hPD-L1 cell ratio at 2:1. All conditions were run in duplicates. After approximately 3-day culture, 100 μL of supernatant per well was harvested for human IFNγ quantification. Human IFNγ ELISA was performed to assess IFNγ level on pooled supernatant from duplicates by using hIFNγ QUANTIKINE kit (R&D Systems, SIF50). Assays were run following the standard protocol provided by manufacturer. EC50 values were calculated using the [sequence] prism software.

[3] = biological target: T2, polyhistidine-tagged human PD-1 (hPD1-His, 98AFK) (human, UniProt Q15116 25-167, limits assumed); assay: SPR solution affinity; reference Humanized 08A IgG4 S61N (98AIO)
T2 construct: also called human PD1-His; Human PD-1-His; not shown: polyhistidine tag
T2 sequence (Q15116 25-167 limits assumed): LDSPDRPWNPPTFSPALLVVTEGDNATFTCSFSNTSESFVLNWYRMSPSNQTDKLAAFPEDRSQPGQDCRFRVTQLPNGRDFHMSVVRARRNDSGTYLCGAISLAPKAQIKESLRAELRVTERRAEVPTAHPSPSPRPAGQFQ
Description: The titration series were incubated for 16-24 hours to reach equilibrium at room temperature. The unbound sites were measured using a BIAcore chip immobilized with antigen in a competition mode where SPR signal detected corresponded to unbound antibody.
Free, unbound antibodies concentrations were measured as proportional to RU after 120 seconds (for 500 pM mAb series) or 400 seconds (for 100 pM mAb series) of injection at 10 μL/min.
Data analyses were performed using KINEXA Pro Version 1.02 (Sapydyne) where RUs were normalized and plotted against concentrations.

AVG EC50, IL-2 luciferase reporter (Jurkat.hPD-1.IL2luc + THP-1.PD-L1 assay) [1]	binding result [2]	KD (REF)/KD [3]	Binder
2.54 nM	binds		B1
3.12 nM			B2
0.55 nM			B3
3.32 nM			B4
		13	B5
